Laboratory results reported in patent publication US20090226456A1 (published 2009).

Key:
Experiment in all cases: flow cytometry on transiently transfected cells
[1] = target: T1, DcR2 on transiently transfected cells (UniProt Q9UBN6 56-386, limits assumed)
T1 construct: whole, on cells
T1 sequence (looked up): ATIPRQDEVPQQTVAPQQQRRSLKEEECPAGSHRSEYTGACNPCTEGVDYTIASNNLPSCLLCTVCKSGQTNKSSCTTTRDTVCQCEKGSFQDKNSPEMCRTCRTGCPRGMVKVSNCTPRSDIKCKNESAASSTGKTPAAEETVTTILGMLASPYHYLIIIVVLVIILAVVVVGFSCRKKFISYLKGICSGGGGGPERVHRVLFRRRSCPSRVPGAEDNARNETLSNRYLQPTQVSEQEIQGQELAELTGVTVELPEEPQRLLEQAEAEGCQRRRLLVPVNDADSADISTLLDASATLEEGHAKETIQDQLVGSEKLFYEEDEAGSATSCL
Experimental: (§1) One million cells, in 0.1 ml of FACS buffer (PBS, 0.1% BSA, 0.1% NaN₃), were incubated with 0.1-1 microgram of protein or antibody at RT for 15 min. The cells were washed with 3 ml of FACS buffer, reacted with biotinylated primary antibody, and stained with PE-conjugated secondary antibody at RT for 15 min. Cells were then washed again, resuspended in 0.5 microgram/ml of propidium iodide, and live cells were gated and analyzed on a FACScan using the CellQuest software (BD Biosciences).

[2] = target: T2, HveA on transiently transfected cells (Homo sapiens (Human), UniProt Q92956 39-283)
T2 construct: also called HVEM/TR2
T2 sequence: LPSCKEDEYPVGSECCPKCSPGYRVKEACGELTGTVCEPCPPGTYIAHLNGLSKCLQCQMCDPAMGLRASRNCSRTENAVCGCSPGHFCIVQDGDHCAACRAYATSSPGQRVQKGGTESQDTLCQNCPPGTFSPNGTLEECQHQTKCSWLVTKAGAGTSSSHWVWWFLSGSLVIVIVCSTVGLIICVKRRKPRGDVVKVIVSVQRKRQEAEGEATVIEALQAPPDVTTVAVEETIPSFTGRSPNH
Experimental: as §1

[3] = target: T3, AITR on transiently transfected cells (UniProt Q9Y5U5 26-241, limits assumed)
T3 construct: whole, on cells
T3 sequence (looked up): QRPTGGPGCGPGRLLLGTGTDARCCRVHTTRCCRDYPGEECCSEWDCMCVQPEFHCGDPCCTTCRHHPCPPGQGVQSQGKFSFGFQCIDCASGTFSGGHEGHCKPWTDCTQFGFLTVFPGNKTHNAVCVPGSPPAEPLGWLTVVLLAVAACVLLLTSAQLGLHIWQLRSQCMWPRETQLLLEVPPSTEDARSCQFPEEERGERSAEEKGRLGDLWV
Experimental: as §1

[4] = target: T4, CD30 on transiently transfected cells (UniProt P28908 19-595, limits assumed)
T4 construct: whole, on cells
T4 sequence (looked up): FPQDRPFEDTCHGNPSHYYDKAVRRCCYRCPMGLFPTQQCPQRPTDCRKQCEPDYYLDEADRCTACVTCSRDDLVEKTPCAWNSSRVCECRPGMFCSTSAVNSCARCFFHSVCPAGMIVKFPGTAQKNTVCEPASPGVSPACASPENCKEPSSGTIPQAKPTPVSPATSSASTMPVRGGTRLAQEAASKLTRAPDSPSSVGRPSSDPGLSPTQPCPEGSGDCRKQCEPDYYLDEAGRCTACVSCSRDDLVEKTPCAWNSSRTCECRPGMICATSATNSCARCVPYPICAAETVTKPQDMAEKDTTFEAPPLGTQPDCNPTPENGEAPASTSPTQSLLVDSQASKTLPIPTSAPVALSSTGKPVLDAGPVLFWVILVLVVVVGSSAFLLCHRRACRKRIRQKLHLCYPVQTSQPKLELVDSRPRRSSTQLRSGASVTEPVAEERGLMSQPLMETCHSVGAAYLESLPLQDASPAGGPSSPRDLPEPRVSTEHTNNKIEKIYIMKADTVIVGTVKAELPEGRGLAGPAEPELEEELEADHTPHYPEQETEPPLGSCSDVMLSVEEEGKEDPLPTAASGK
Experimental: as §1

[5] = target: T5, TNFR2 on transiently transfected cells (human, UniProt P20333 23-461)
T5 sequence: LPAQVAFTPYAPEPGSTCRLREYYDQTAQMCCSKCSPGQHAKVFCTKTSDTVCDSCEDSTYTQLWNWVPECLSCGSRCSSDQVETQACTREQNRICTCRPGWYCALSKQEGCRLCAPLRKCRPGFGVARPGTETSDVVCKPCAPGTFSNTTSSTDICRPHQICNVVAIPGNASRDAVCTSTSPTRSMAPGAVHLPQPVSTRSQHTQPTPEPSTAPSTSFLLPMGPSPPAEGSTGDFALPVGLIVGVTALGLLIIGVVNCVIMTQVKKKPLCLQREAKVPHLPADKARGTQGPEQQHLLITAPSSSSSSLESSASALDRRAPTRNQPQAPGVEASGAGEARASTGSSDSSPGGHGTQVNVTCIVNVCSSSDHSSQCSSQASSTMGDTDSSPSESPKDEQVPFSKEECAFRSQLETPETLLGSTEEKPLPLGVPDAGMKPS
Experimental: as §1

[6] = target: T6, DR4 on transiently transfected cells (UniProt O00220 24-468, limits assumed)
T6 construct: whole, on cells
T6 sequence (looked up): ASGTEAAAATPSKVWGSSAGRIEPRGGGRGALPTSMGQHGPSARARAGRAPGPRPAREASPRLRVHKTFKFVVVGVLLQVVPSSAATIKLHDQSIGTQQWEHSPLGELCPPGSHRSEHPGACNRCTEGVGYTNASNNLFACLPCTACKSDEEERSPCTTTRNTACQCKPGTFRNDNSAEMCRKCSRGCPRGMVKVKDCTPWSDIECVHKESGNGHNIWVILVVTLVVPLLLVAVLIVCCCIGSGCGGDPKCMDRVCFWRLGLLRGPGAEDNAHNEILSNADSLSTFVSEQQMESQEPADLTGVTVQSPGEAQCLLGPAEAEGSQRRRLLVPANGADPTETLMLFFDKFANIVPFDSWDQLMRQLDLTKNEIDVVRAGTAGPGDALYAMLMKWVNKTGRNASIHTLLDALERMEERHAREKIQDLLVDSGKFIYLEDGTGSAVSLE
Experimental: as §1

[7] = target: T7, 4-1BB on transiently transfected cells (UniProt Q07011 24-255)
T7 construct: whole, on cells
Experimental: as §1

[8] = target: T8, DR5 on transiently transfected cells (UniProt O14763 56-440, limits assumed)
T8 construct: whole, on cells
Experimental: as §1

Measured: binding result

T7 sequence (Q07011 24-255): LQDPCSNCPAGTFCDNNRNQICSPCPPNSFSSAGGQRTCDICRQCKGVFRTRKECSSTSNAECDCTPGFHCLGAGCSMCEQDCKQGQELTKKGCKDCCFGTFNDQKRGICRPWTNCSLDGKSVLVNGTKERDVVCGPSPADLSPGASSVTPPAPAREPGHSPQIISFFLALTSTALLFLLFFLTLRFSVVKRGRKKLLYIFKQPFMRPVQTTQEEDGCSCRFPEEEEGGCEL

B1: FLAG-tagged soluble TNF-gamma-beta (aa 72-251) (ligand, human)
chain: DYKDDDDKLKGQEFAPSHQQVYAPLRADGDKPRAHLTVVRQTPTQHFKNQFPALHWEHELGLAFTKNRMNYTNKFLLIPESGDYFIYSQVTFRGMTSECSEIRQAGRPNKPDSITVVITKVTDSYPEPTQLLMGTKSVCEVGSNWFQPIYLGAMFSLQEGDKLMVNVSDISLVDYTKEDKTFFGAFLL
notes: also called FLAG-TNF-gamma-beta; FLAG-TL1β
no binding: all assays above
